As usually defined, the Kd is the equilibrium constant for the complex coming apart. Lower therefore signals a tighter complex.

Our source for the activity and Kd values is patent US20190184035, “BCL11A HOMING ENDONUCLEASE VARIANTS, COMPOSITIONS, AND METHODS OF USE” (bluebird bio, Inc., published 2019).

The subject of data set [1] is CCR5 megaTAL (Artificial). The data set is described as follows: cell_activity. The settings on record: human CD34+ cells; full megaTAL site not given, HE site given.
Data set [2] has as its target T1, BCL11A.B4.A3 I-OnuI homing endonuclease variant (Ophiostoma novo-ulmi).
T1 chain: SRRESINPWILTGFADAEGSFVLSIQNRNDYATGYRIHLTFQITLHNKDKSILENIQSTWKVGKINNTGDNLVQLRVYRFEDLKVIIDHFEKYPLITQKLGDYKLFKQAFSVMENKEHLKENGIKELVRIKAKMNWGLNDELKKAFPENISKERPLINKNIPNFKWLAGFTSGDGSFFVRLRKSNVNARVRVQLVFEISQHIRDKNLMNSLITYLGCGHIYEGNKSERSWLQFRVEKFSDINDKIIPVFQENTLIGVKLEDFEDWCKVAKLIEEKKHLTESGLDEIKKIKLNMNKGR
The data set is described as follows: flow; yeast surface display equilibrium binding titration. From the text: The DNA binding affinity and cleavage specificity of the I-OnuI variant BCL11A.B4.A3 was characterized. A plasmid encoding the BCL11A.B4.A3 variant identified during reprogramming (SEQ ID NO: 34) was transformed into S. cerevisiae for surface display.

Data set [3] concerns the target T2, BCL11A.B4.A3 I-OnuI homing endonuclease variant (mammalian expression) (Ophiostoma novo-ulmi).
T2 chain: T1 chain
The data set is described as follows: cell_activity; HEK 293T chromosomal mCherry reporter. The settings on record: tags: mammalian expression plasmid. On the procedure:
The activity of reprogrammed I-OnuI HEs that target the GATA-1 motif in the BCL11A gene was measured using a chromosomally integrated fluorescent reporter system (Certo et. al., 2011). Fully reprogrammed I-OnuI HEs that bind and cleave the BCL11A target sequence were cloned into mammalian expression plasmids and then individually transfected into a HEK 293T […] cell line that was reprogrammed to contain the BCL11A target sequence upstream of an out-of-frame gene encoding the fluorescent mCherry protein. Cleavage of the embedded target site by the HE and the subsequent accumulation of small insertions or deletions, caused by DNA repair via the non-homologous end joining (NHEJ) pathway, results in approximately one out of three repaired loci placing the fluorescent reporter gene back “in-frame”. mCherry fluorescence is therefore a readout of endonuclease activity at the chromosomally embedded target sequence. […] FIG. 4A.
A secondary I-OnuI variant library was generated by performing random mutagenesis one of the reprogrammed I-OnuI HEs that targets the BCL11A target site, identified in the initial reporter screen (BCL11.A.B4, SEQ ID NO: 6). In addition, display-based flow sorting was performed under more stringent cleavage conditions (pH adjusted to 7.2) in an effort to isolate variants with improved catalytic efficiency. FIG. 4B. […]

“CTTCCAGGAATTCTTTGGCCTG (double strand) [CCR5 HE target site]” returned an activity in data set [1] of 10 % indels.

B1: BCL11A HE target site (dsDNA)
DNA 1: CAGTTGCTTTTATCACAGGCTC
DNA 2: GAGCCTGTGATAAAAGCAACTG
Molecule B1 gave a Kd in data set [2] of approximately 500 pM. This molecule gave an activity in data set [3] of approximately 3 fold vs BCL11A.B4.
